Reference: US10597674B2, “HPPD variants and methods of use” (BASF Agricultural Solutions Seed, US LLC, priority 2015, dated 2020)
Residue numbers refer to the chain shown, from its start. Names may count otherwise.

How the values were obtained:
[1] = system: transgenic soybean T0 events; assay: Greenhouse spray test of T0 soybean events, herbicide tolerance rating 0-3; assay type: in vivo; conditions: Cmpd. 1 300 g AI/ha; for number of events with Herbicide Tolerance Rating 0: five days after application; for number of events with Herbicide Tolerance Rating 1: rating 1 = slight tolerance, 50-95% leaf damage; for number of events with Herbicide Tolerance Rating 2: rating 2 = moderate tolerance, 10-49% of leaf area; for number of events with Herbicide Tolerance Rating 3: rating 3 = good tolerance, less than 10% of leaf area
Description: Tolerant green shoots were transferred to rooting media or grafted. Rooted plantlets were transferred to the greenhouse after an acclimation period. Plants containing the transgene were then sprayed with HPPD inhibitor herbicides, as for example with mesotrione at a rate of 300-600 g AI/ha, or with Cmpd. […] Five to ten days after the application, the symptoms due to the application of the herbicide were evaluated and compared to the symptoms observed on wild-type plants under the same conditions.
For example, T0 soybean plants having a “plant expression cassette”, which includes an HPPD inhibitor tolerant HPPD polypeptide of the present invention, were tested towards the tolerance of Cmpd. 1.
Prior greenhouse trials with the transgenic plants, soybean transformants were routinely analyzed for the expression and presence of the transgenes using the ELISA protein detection method (see detailed description under item D and H). Only plants recovering in the selection media and having a detectable HPPD transgene protein expression were used for the herbicide tolerance analysis. A DeVries Tracker Sprayer was calibrated prior to each spraying. The chemical formulation used for Cmpd. 1 was supplemented with ammonium sulfate and methylated rape seed oil. Spray tests were conducted with a concentration, which equals to 300 grams AI per hectare (300 g AI/ha). Tolerance was evaluated 5 days after spraying. […] A rating of “3” was assigned to plants showing good tolerance, i.e. less than 10% of the leaf area from the top three trifoliate leaves showing chlorosis or only very slight bleaching.

[2] = system: E. coli cells expressing an HPPD polypeptide; assay: Brown Color Assay on solid LB-agar, visual score of brown pigment; assay type: cell-based; parameters: key to brown pigment formation: +++: a dark brown coloring as seen for E. coli cells expressing one of the respective mutant HPPD polypeptide without inhibitor; ++: medium brown pigmentation; +: light brown pigmentation; 0: no brown pigmentation development was detected on the LB agar plates
Description: Mutant HPPD polypeptides were analyzed using a brown color assay (WO2014/043435). Bacterial cells expressing the mutant HPPD polypeptide according to the invention were assayed in 96 well format for HPPD inhibitor tolerance by spotting on solid media containing LB-agar, selection agent for the expression vector pSE420(RI)NX (WO2014/043435), 5 mM tyrosine (Sigma-Aldrich, St. Louis, USA), 42 mM succinate (Sigma-Aldrich, St. Louis, USA) and six different concentrations of the HPPD inhibitor herbicide Cmpd. 1 (0-500 μM). In the brown color assay, an overnight culture of the E. coli cells expressing one of the respective mutant HPPD polypeptides were diluted to an OD600 of 1 and 10 μl extract was spotted in triplicates on plates containing 0, 25, 50, 100, 250, or 500 μM of Cmpd. 1. Plates were covered with airpore tape and incubated at 30 degrees C. After 24 hours, the cells were kept in darkness at room temperature and after 7 days the brown pigment formation was scored visually. In the presence of an HPPD inhibitor herbicide, this pigment formation is inhibited and the color of the agar plate will not alter, unless an HPPD inhibitor herbicide tolerant HPPD polypeptide is expressed and active. […] The “++” and “+” scores a medium and light brown pigmentation, respectively, and the “0” means that no brown pigmentation development was detected on the LB agar plates.

[3] = system: transgenic soybean T0 events; assay: Additional greenhouse trials of T0 soybean events, leaf damage score 0-100 as percentiles; assay type: in vivo; conditions: Cmpd. 1 300 g AI/ha, five days
Procedure, shortened: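 Independent T0 events (21 to 94 per construct, single cassette insertion) expressing mutant HPPD were sprayed with HPPD inhibitor herbicide in the greenhouse. Leaf damage scored 5 days after application from 0 (no damage) to 100 (complete bleaching). Scores reported as percentile distributions (25th, median, 75th) per construct.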

[4] = system: transgenic T1 soybean events; assay: Field trials of T1 soybean events, leaf damage eight days after application; assay type: in vivo
Description: Soybean plants expressing an HPPD inhibitor tolerant polypeptide of the present invention alone, or along with a gene conferring tolerance to glyphosate and/or a gene conferring tolerance to glufosinate or having a “plant expression cassette”, which includes only an HPPD inhibitor tolerant polypeptide of the present invention, were tested for tolerance to different HPPD inhibitor herbicide chemical classes. The transgenic plants were routinely analyzed for the expression and presence of the transgenes using the ELISA protein detection method (see detailed description under item D and H). Only plants recovering in the selection media and having a detectable HPPD transgene protein expression were regenerated, transferred to the greenhouse and used at V2-V4 growth stage for the HPPD inhibitor herbicide tolerance analysis of the T0 soybean events in the greenhouse (Example 6). The chemical formulation with HPPD inhibitor herbicides was supplemented with ammonium sulfate and methyl ester rapeseed oil. Herbicide tolerance evaluation was taken 5-21 days after spraying. The best performing independent T0 soybean events were selfed to produce T1 soybean seeds. In the field trails, the advanced T1 soybean seeds were planted and treated with either 210 g/ha of isoxaflutole or 150 g/ha of Cmpd.
In Table 10, the frequency of the soybean events showing a good tolerance, i.e. equal or less than 15% damage of the total leaf area are summarized

[5] = system: E. coli cells expressing an HPPD polypeptide; assay: Brown color bioassay in liquid culture, residual brown color formation (BCF), OD440 after 96 hours; assay type: cell-based; conditions: Cmpd. 1 1000 μM, 96 hours
Procedure, shortened: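 E. coli expressing HPPD variants were grown at 30 degrees Celsius from OD600 0.3-0.5 in LB with 5 mM HPP, with or without herbicide (e.g. Cmpd. 1, 1000 μM). After 96 hours, supernatant OD440 was measured; residual brown colour formation compares pigment with and without inhibitor.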

[6] = 25 μM Cmpd. 1, scored after 7 days
[7] = 50 μM Cmpd. 1, scored after 7 days
[8] = 100 μM Cmpd. 1, scored after 7 days
[9] = 250 μM Cmpd. 1, scored after 7 days
[10] = 500 μM Cmpd. 1, scored after 7 days
[11] = 150 g/ha Cmpd. 1, stage V2-V4, eight days after application
[12] = 210 g/ha isoxaflutole, stage V2-V4, eight days after application

B1: SEQ ID NO: 2: prior art mutant HPPD polypeptide (WO2014/043435): E335P G336W K339A A340Q (protein)
chain: MADLYENPMGLMGFEFIEFASPTPGTLEPIFEIMGFTKVATHRSKNVHLYRQGEINLILNNEPNSIASYFAAEHGPSVCGMAFRVKDSQKAYNRALELGAQPIHIDTGPMELNLPAIKGIGGAPLYLIDRFGEGSSIYDIDFVYLEGVERNPVGAGLKVIDHLTHNVYRGRMVYWANFYEKLFNFREARYFDIKGEYTGLTSKAMSAPDGMIRIPLNEESSKGAGQIEEFLMQFNGEGIQHVAFLTDDLVKTWDALKKIGMRFMTAPPDTYYEMLEGRLPDHGEPVDQLQARGILLDGSSVEGDKRLLLQIFSETLMGPVFFEFIQRKGDDGFGPWNFAQLFESIERDQVRRGVLTAD
modifications: mutant HPPD polypeptide
notes: prior art mutant HPPD polypeptide (WO2014/043435): E335P G336W K339A A340Q
B1 was tested. Which “number of events with Herbicide Tolerance Rating 0” value [1] did it give?
The value was 5.

What about the “Percentage events rated “2 & 3”” value ([1]; five days, less than 50% leaf damage) of the same molecule?
Its value is 83.3%.

And the “number of events with Herbicide Tolerance Rating 1” value ([1]; five days)?
The value was 10.

What about the “number of events with Herbicide Tolerance Rating 2” value ([1]; five days) of the same molecule?
Its value is 26.

And the “number of events with Herbicide Tolerance Rating 3” value ([1]; five days)?
The value was 49.

And the brown pigment formation [2, 6]?
The brown pigment formation was “++”.

What about the brown pigment formation [2, 7] of the same molecule?
Its brown pigment formation is “++”.

What about the brown pigment formation [2, 8] of the same molecule?
The brown pigment formation was “++”.

And the “brown pigmentation, in words” value ([2]; 250 μM Cmpd. 1)?
The value was “only a slight brown pigmentation”.

And the brown pigment formation [2, 9]?
Its brown pigment formation is “+”.

And the “brown pigmentation, in words” value ([2]; 500 μM Cmpd. 1)?
Its value is “lost their brown pigmentation”.

What about the brown pigment formation [2, 10] of the same molecule?
The brown pigment formation was 0.

And the “leaf damage score, Interquartile range” value ([3]; 75th minus 25th percentile)?
Its value is 30.0.

And the “leaf damage score, 25th percentile” value ([3]; scale 0 (no damage) to 100 (complete bleaching))?
The value was 15.0.

And the “leaf damage score, 75th percentile” value ([3]; scale 0-100)?
Its value is 45.0.

What about the “leaf damage score, 90th percentile” value ([3]; scale 0-100) of the same molecule?
Its value is 87.0.

What about the “leaf damage score, Median” value ([3]; scale 0-100) of the same molecule?
Its value is 20.0.

And the “Frequency in the population (events with ≤15% leaf damage)” value [4, 11]?
Its value is 41%.

What about the “Independent events with ≤15% leaf damage after spray” value [4, 11] of the same molecule?
Its value is 16.

And the “Frequency in the population (events with ≤15% leaf damage)” value [4, 12]?
Its value is 26%.

What about the “Independent events with ≤15% leaf damage after spray” value [4, 12] of the same molecule?
Its value is 10.

And the “brown pigmentation in the presence of the HPPD inhibitor, in words” value [5]?
Its value is “did not produce a substantial brown pigmentation”.

B2: SEQ ID NO: 32: mutant HPPD polypeptide: P268R T270E E335P G336H N337S A340V I345V (protein)
chain: B1 chain with P268R, T270E, W336H, N337S, A339K, Q340V, I345V
modifications: mutant HPPD polypeptide
notes: mutant HPPD polypeptide: P268R T270E E335P G336H N337S A340V I345V
How did the “proportion of T0 soybean events with less than 10% leaf damage” value ([1]; five days) turn out when B2 was run?
Its value is ~72%.

What about the “number of events with Herbicide Tolerance Rating 0” value [1] of the same molecule?
The value was 1.

And the “number of events with Herbicide Tolerance Rating 1” value ([1]; five days)?
The value was 0.

What about the “number of events with Herbicide Tolerance Rating 2” value ([1]; five days) of the same molecule?
The value was 10.

What about the “number of events with Herbicide Tolerance Rating 3” value ([1]; five days) of the same molecule?
Its value is 28.

What about the brown pigment formation [2, 6] of the same molecule?
Its brown pigment formation is “+++”.

And the brown pigment formation [2, 7]?
Its brown pigment formation is “+++”.

What about the brown pigment formation [2, 8] of the same molecule?
The brown pigment formation was “+++”.

What about the brown pigment formation [2, 9] of the same molecule?
The brown pigment formation was “++”.

What about the brown pigment formation [2, 10] of the same molecule?
The brown pigment formation was “+”.

And the “Frequency in the population (events with ≤15% leaf damage)” value [4, 11]?
The value was 42%.

And the “Independent events with ≤15% leaf damage after spray” value [4, 11]?
Its value is 10.

And the “Frequency in the population (events with ≤15% leaf damage)” value [4, 12]?
Its value is 50%.

What about the “Independent events with ≤15% leaf damage after spray” value [4, 12] of the same molecule?
Its value is 12.

B3: SEQ ID NO: 96: mutant HPPD polypeptide: R213K P268G T270E E335P G336H N337S A340V I345V (protein)
chain: B1 chain with R213K, P268G, T270E, W336H, N337S, A339K, Q340V, I345V
modifications: mutant HPPD polypeptide
notes: mutant HPPD polypeptide: R213K P268G T270E E335P G336H N337S A340V I345V
What does the source list for B3?
number of events with Herbicide Tolerance Rating 0 [1]: 0; number of events with Herbicide Tolerance Rating 1 ([1]; five days): 5; number of events with Herbicide Tolerance Rating 2 ([1]; five days): 43; number of events with Herbicide Tolerance Rating 3 ([1]; five days): 34; brown pigment formation [2, 6]: +++; brown pigment formation [2, 7]: ++; brown pigment formation [2, 8]: ++; brown pigment formation [2, 9]: ++; brown pigment formation [2, 10]: +; Frequency in the population (events with ≤15% leaf damage) [4, 11]: 70%; Independent events with ≤15% leaf damage after spray [4, 11]: 14; Frequency in the population (events with ≤15% leaf damage) [4, 12]: 55%; Independent events with ≤15% leaf damage after spray [4, 12]: 11

B4: SEQ ID NO: 31: mutant HPPD polypeptide: P268G T270E E335P G336H N337S A340V I345V (protein)
chain: B1 chain with P268G, T270E, W336H, N337S, A339K, Q340V, I345V
modifications: mutant HPPD polypeptide
notes: mutant HPPD polypeptide: P268G T270E E335P G336H N337S A340V I345V
Which “number of events with Herbicide Tolerance Rating 0” value [1] does the source give for B4 here?
Its value is 4.

What about the “number of events with Herbicide Tolerance Rating 1” value ([1]; five days) of the same molecule?
The value was 1.

What about the “number of events with Herbicide Tolerance Rating 2” value ([1]; five days) of the same molecule?
The value was 21.

What about the “number of events with Herbicide Tolerance Rating 3” value ([1]; five days) of the same molecule?
The value was 30.

What about the brown pigment formation [2, 6] of the same molecule?
The brown pigment formation was “+++”.

What about the brown pigment formation [2, 7] of the same molecule?
Its brown pigment formation is “+++”.

And the brown pigment formation [2, 8]?
Its brown pigment formation is “+++”.

And the brown pigment formation [2, 9]?
Its brown pigment formation is “++”.

What about the brown pigment formation [2, 10] of the same molecule?
Its brown pigment formation is “+”.

What about the “Frequency in the population (events with ≤15% leaf damage)” value [4, 11] of the same molecule?
The value was 86%.

What about the “Independent events with ≤15% leaf damage after spray” value [4, 11] of the same molecule?
The value was 12.

What about the “Frequency in the population (events with ≤15% leaf damage)” value [4, 12] of the same molecule?
Its value is 93%.

What about the “Independent events with ≤15% leaf damage after spray” value [4, 12] of the same molecule?
The value was 13.
